The text below walks through data of paper doi:10.1101/2019.12.26.888669.

For this assay, the target named is Escherichia coli thiol peroxidase, oxidized (disulfide) state (Escherichia coli) (UniProt P0A862). The experiment in a line: SEC-MALS. For orientation: In gel filtration, larger molecules generally elute earlier.

As a reminder, the stoichiometry N is the number of molecules, sites or subunits per partner or assembly. In the case of “Escherichia coli thiol peroxidase, oxidized (disulfide) state (from UniProt P0A862 1-168) (enzyme)”, the stoichiometry N is 3.
